From the DeepSol protein solubility set come the findings set out here.

This data set is described as follows: soluble on expression in E. coli; label from the status in PepcDB or PDB records.
In the case of “MKILGISGSPRKEGTHFAVNYALDYLKEKGFETKYISVFQKKIEFCIHCDYCLRTKEGCVHKDSMQEIYNGLKWADAVILGSPCYNGTVSGQLKTIMDRCRAIFAEDIDVLRNKYGMALSVGGDRNGGQEVVLKTIHDFYILNGVIPVSGGSFGSNLGATFWSQDNGKKGVEEDTEGIRTLKRTLKKFYNCLNEEGELEHHHHHH”, the “soluble on expression in E. coli” value was “not soluble”.
Consider “MGSDKIHHHHHHMKTLVICSGGLDSVSLAHKVAAEHDLIGLISFDYGQRHRKELDFAARAATRLGVPHDLIDMRQIGAHLSGSALTDDVDVPDGHYAEDTMKITVVPNRNAIMLAIAFGIAAAKQADAVATAVHGGDHFIYPDCRPGFTQAFEAMQAQALDGYASVRLYTPFVHEPKSAIVTEGERHNTPFADTWSCYKGGEVHCGRCGTCVERREAFHLAGVADPTPYADPEFWRAAVEGR”, for which the “soluble on expression in E. coli” value is recorded as “not soluble”.
For “MQKFILSAFVVALVAADCALKCPDGYFSFKRAPSAKNSMTGLWCVKAILSDTLISPNQAKQVCEKDGSILTSFENLDERTKLATVLRDFLSAKKLDRGGMIVDGHRLKNCETDDRTVLNAEPCRNSSTGFTTDEKHTDNTFMWKSWADTEPGQSIFEKQIESCLQLAISQFKSRTELINDVFCNYVKHPQNEGAYDLWNYGAVCGRLPEWN”, the “soluble on expression in E. coli” value is on record as “not soluble”.
On to “MSSQPNQSLIDGIRCLQYLVSSDRAIGCRELARLMDINTTRVNRLLMTMASIGLTMQDEHRRYLPGPGIHALAAQAIRGSALFSHALPILERHAPKDIVVALGVLWEDQIIYIYHSTPGSQGSQALAGFRMYPAWQSVPGVALLAAESDEALMQRFTPEQWRNLAPHVAQQRQRGYVLWHHADGEVSMAQPLGKHAAALAFAGMWRIDEAEAAARLQALKALNQLIAQ”, for which the “soluble on expression in E. coli” value is listed as “not soluble”.
Turning to “MSLSCPRCGWVHYINPLPVAIALTVNRNNELLMIRRAHEPAFNEWALPGGFLEAGERPEEGCLRELFEETSLEGTIDKLIGVWHLESGLYGSLIAVAYRVIAAHERISINHEVFEAGFYRPDNMPPVRIPLHRQIIAESRWPERDLSLTEGHHHHHH”, the “soluble on expression in E. coli” value is given as “not soluble”.
Consider “MMELHRRVLEGDEAALKTLVSAAPNIGEVARDVVEHLSPGSYREGGPCAVCGGRLESVIASAVEEGYRLLRAYDIERFVVGVRLERGVAMAEEEVKLAAGAGYGESIKAEIRREVGKLLVSRGGVTVDFDSPEATLMVEFPGGGVDIQVNSLLYKARYWKLARNISQAYWPTPEGPRYFSVEQALWPVLKLTGGERLVVHAAGREDVDARMLGSGRPMIVEVKSPRRRRIPLEELEAAANAGGKGLVRFRFETAAKRAEVALYKEETARVRKVYRALVAVEGGVSEVDVEGLRRALEGAVIMQRTPSRVLHRRPDILRRRRLYSLDCSPLEGAPLMECILEAEGGLYIKELVSGDGGRTRPSFAEVLGREAVCIELDVVWVEHEAPAAPGLEHHHHHH”, for which the “soluble on expression in E. coli” value is “soluble”.
“MSLNRQSKAAVPALREISPVKQQVSEEKKEIQEDSSILVDLKGAVQKEGVYKLTASSRVRDVIELAGGLTSEADKHAINFAEKLTDEQVVYVPKQGEEISVLPRSLVSGKKETASKDQSKVHINKASLEELQHIPGIGAKRAQDIIDMRDKLGGFKALEDLRQVSGIGEKTLEKLKDDIFLDEGHHHHHH”: the “soluble on expression in E. coli” value was “soluble”.
Then “MNLVELGSKTAKDGFKNEKDIADRFENWKENSEAQDWLVTMGHNLDEIKSVKAVVLSGYKSDINVQVLVFYKDALDIHNIQVKLVSNKRGFNQIDKHWLAHYQEMWKFDDNLLRILRHFTGELPPYHSNTKDKRRMFMTEFSQEEQNIVLNWLEKNRVLVLTDILRGRGDFAAEWVLVAQKVSNNARWILRNINEVLQHYGSGDISLSPRGSINFGRVTIQRKGGDNGRETANMLQFKIDPTELFDI”, with “soluble”; and “MSLRPEFQGLQGGLFSSVKKADVGTAVLDLMANGVDMLCWADPFFPDPVLPEHISQAVIKSMENGSASHYTMPIGNPELKEKIALKLQRYNNLTVEAQRNILITPGSDSGLLFAMMPFINNDDEVLIHSPSYPSNFLNVELLGGKPISVELKAENNFQIDIKDFENKITEKTKMVILTNPNNPTGTVLRRESLQAIADFIIAHDLILVVDQAFEDAIFDEIEFISIASLPGMWERTVSVFSFSKGMGLSGFRVGYLVADAQIVDVLFGCTVNVVGATNTSSQAGMIAALDEPSFMGEYTQIFERRRKVVFEMMNAIPGVCMVMPESGFLSWIDISKLGTSTFICDYLLQHAHVMVNSGVPYGQGGEGYIRLVHGCYKDDEKLYAVLTRIQQALMQLAKEKGICHGEGHHHHHH”, with “soluble”; and “HWVTPDGQPGPSGEGGFTAESGRYHLFVSLACPWAHRTLIFRHLKDLQAHIGITIVDPRMLEHGWAFSEISRDNPVQDIRYLHQLYTRAKPDYTGRVTVPVLWDKQRDTIVSNESADIIRMFNSAFDSLTGNDLDFYPEALRNEIGTINEVVYRDFNN”, with “not soluble”.
On to “MALLLVMGIPASGKSTFRRKIQTAHRELLESTSFDDFRMMRTRSSDKNARQTRKSFECHVESCISESTSKIYVIEDIFYLKSMRHPFQKIAKRHGLQFGIIFLKVGIVEALRRNSHRTGIEKQKNETIRKIFEKMEDPDEILENSIVLETDEVEIDVEVVMNKLKFDFTAKKPIVPEVSLKKSHIQKPPPPSKLESLDVLTRRLVSELMQNDKTMNGRKLSDARKKLLIDLSGNLEISNENDPKFLYDLKLKLIEFYDK”, for which the “soluble on expression in E. coli” value is on record as “not soluble”.
“MGSDKIHHHHHHMAKFDLTTPWGRFKTYLHYLWNDHAYLRLGFSNAHWISPELVRANQPWPFQLAWWKKRGIKTIVNLRGGFDGSFYALEKDACERLGLNFVDFVITSREVPIRERVRGAKELFERIEYPALMHCKSGADRAGIMSVFYAHYRLGQPIREAMQQLGPRYLHIKHGNTGVLDYVFEQYLEKGEPKGLTFSDWVESDDYDPVEMKKTFRAGMLGKVLTDKILRRE”: the “soluble on expression in E. coli” value is “not soluble”.
For “MFDDQDEIHPLLAGAPQTTEFRKLRKRIVREVREAIETYGMVERGARWLVCLSGGKDSYTLLAVLHELKWRGLLPVDLLACNLDQGQPGFPATVLPEFLSRMGVPHRIEYQDTYSIVMDKIPQGRTYCALCSRLRRGNLYRIAREEGCSAVVLGHHRDDILETFFMNLFHGGRLATMPPKLVNEDGDLFVYRPLAFVAEADCEKFARDMAYPIIPCDLCGSQEGLQRQQVKQILDGWEARSPGRRQVMFRALMNARPSHLLDPGLFDFLGLATAPRASEERQDEPPHLRGEA” the value was “not soluble”; for “MIKSYKIRGTSLTVNRSDSYPDACNWTADSFGMLFYDPEYDLSTESLSITLDAGNDWVPEGGLVYESLPVKVTYENPEMMDYGTDWFNQGYSALGWNGEEYAYLGTDRGIVNILLEEDEKILYPNEEYDLKEGYTLKVTDLASDKACLTLSRNKLPVYSSIISPGKSADLGTHTFLYKKELNGVEVPLFSVYVDSVIQGDELSAVNLKHLLHFSDSPLELNYGKEYGELTIVETYPKLRLENKHVVWSGSDINVTEDIWIGRFEKKTAGNLFVLEHHHHHH”, “soluble”.
For “MGRVGVLLANLGTPDDYSYWPMRRYLNEFLSDKRVIDYPAWKWQPILQGIILTKRPFSSGAAYESIWNHDKGESPLMTITKDQTAKLRAALAERYGDRVMVDFCMRYGNPSTKSKVRQMVTEGCDRILFFPLYPQYAGATTATANDQFFRALMDETWQPAARTVPAYFDQPAYVDALAQSIERAYAAMDSRPDVLVCSYHGMPERYLMQGD” the value was “not soluble”; for “GSHVSKREDGRLDHELRPVIITRGFTENPAGSVLIEFGHTKVLCTASVTEGVPRWRKATGLGWLTAEYAMLPSATHSRSDRESVRGRLSGRTQEISRLIGRSLRACIDLAALGENTIAIDCDVLQADGGTRTAAITGAYVALADAVTYLSAAGKLSDPRPLSCAIAAVSVGVVDGRIRVDLPYEEDSRAEVDMNVVATDTGTLVEIQGTGEGATFARSTLDKLLDMALGACDTLFAAQRDALALPYPGVLPQGPPPPKAFGT”, “soluble”.
For the sequence “SEQKSTASGTCGGKPAERGPLAGHMPSSRPHRVDFCWVPGSDPGTFDGSPWLLDRFLAQLGDYMSFHFEHYQDNISRVCEILRRLTGRAQAWAAPYLDGDLPLPDDYELFCQDLKEVVQDPNSFAEYHAVVTCPLPLASSQLPVAPQLPVVRQYLARFLEGLALDMGTAPRSLPAAMATPAVSGSNSVSRSALFEQQLTKESTPGPKEPPVLPSSTCSSKPGPVEPASSQPEEAAPTPVPRLSESANPPAQRPDPAHPGGPKPQKTEEEVLETEGDQEVSLGTPQEVVEAPETPGEPPLSPGF”, the “soluble on expression in E. coli” value is listed as “soluble”.
Regarding “MIRILHTADWHLGQTFFGYDRAEEHKAFLDWLAEEIRQNEIDALVIAGDVFDVSNPSAASQRIYYEFIYRVTAENPKLQIVIVAGNHDSAARLEAPLPLLQAMRTEVRGVVRKLEGGEIDYDHLTIELKNREGEVEVLCMAVPFLRQGDYPVVETEGNPYMEGVRELYARLLQRLWARRKTNQAILAVGHLQATGSEIAEKDYSERTVIGGLECVSPDTFSEKIAYTALGHIHKAQRVSGRENVRYAGSPIPMSFAEKHYHHGVVMVILDEGCAVDIRRIECPQSIPLISVPGGEAASPEKIIEILRDLPEVDGEAPYLEVKVLLEEPEPMLRQEIEEALAGKKYRLARIVSAYRQEERVEKEVDGWKKGLQEMSPLQIAQSAFEKVYQAEMPADLTDLFQEAYISATRKEEEEGE”, the “soluble on expression in E. coli” value is reported as “not soluble”.
As to “AIAAYRGLHALSQPAYLEDFINSVSNLPQELRDKYGRMGELDALVQRLKNEADALVRELLRKPGSSDPDRGRDTTSLQQMGTKLEQLQAQCVKLNQEKLQLAETAYNTVDQHVRDLDTKLREYEAYLRREGQWPDDLQSLVVNTDHTKMASMKNAAAAAAAAHTAAAPATTARSTQKAPSKGQRKSGEPSTLHIMDDMPIDPNEPRYCYCQNVSYGQMVACESGDCPYEWFHFECVGLTEPPKGEWICPDCRARTGRVR”, the “soluble on expression in E. coli” value is given as “soluble”.
With “MGSDKIHHHHHHMTNLLEASIEQAGYTSRKKVLTDVFLEVRKGELVGLIGANGAGKSTAIKAILGLSEDFKGHIAWNDCSFAYIPEHPSFYEELTLWEHLDLISTLHGIEESEFAHRAQSLLQTFSLDHVKHELPVTFSKGMQQKLMLIQAFLSKPDMYVIDEPFIGLDPISTKRFVDMLKAEKERGAGILMCTHVLDTAEKICDRFYMIEKGSLFLQGTLKDVQDKTGLEGQSLLDCFYKAVQGDRL”, the “soluble on expression in E. coli” value is given as “not soluble”.
Take “VARSSKLLGWCQRQTDGYAGVNVTDLTMSWKSGLALCAIIHRYRPDLIDFDSLDEQNVEKNNQLAFDIAEKELGISPIMTGKEMASVGEPDKLSMVMYLTQFYEMFKD”: the “soluble on expression in E. coli” value was “soluble”.
On to “MGDQPFIPPPQQTALTVNDHDEVTVWNAAPCPMLPRDQVYVRVEAVAINPSDTKMRGQFATPWAFLGTDYAGTVVAVGSDVTHIQVGDRVYGAQNEMCPRTPDQGAFSQYTVTRGRVWAKIPKGLSFEQAAALPAGISTAGLAMKLLGLPLPSPSADQPPTHSKPVYVLVYGGSTATATVTMQMLRLSGYIPIATCSPHNFDLAKSRGAEEVFDYRAPNLAQTIRTYTKNNLRYALDCITNVESTTFCFAAIGRAGGHYVSLNPFPEHAATRKMVTTDWTLGPTIFGEGSTWPAPYGRPGSEEERQFGEDLWRIAGQLVEDGRLVHHPLRVVQGGFDHIKQGMELVRKGELSGEKLVVRLEGPLEHHHHHH”, for which the “soluble on expression in E. coli” value is “soluble”.
“MGSDKIHHHHHHMELNLQTAELALREASESNPGAWADHSRFVAEACKNIASHCKDLSSEQAYIFGLLHDIGRYAGVSSERHLIDGYRYCMERGWEKAAQICISHAFMIQDIATSIGVFDVSDEDYLFMKEFVANAVYDDYDRLVQLCDALAMPSGFCLLEKRFVDVTMRYGVHPATIDRWKKILEIKEQFENQIGCSIYSLLPGIVENSFR”: the “soluble on expression in E. coli” value is on record as “not soluble”.
